The target of assay [1] is non-muscle human F-actin (human) (UniProt P60709). Briefly: co-sedimentation.
The target of assay [2] is rabbit skeletal muscle myosin II (rabbit, UniProt Q28641 1-1938; P02602 1-192; P02608 1-170). Briefly: co-sedimentation.

By stoichiometry N is commonly meant the number of molecules, sites or subunits per partner or assembly.

Chain of rabbit skeletal muscle myosin II (Q28641 whole entry, chain 1 of 3): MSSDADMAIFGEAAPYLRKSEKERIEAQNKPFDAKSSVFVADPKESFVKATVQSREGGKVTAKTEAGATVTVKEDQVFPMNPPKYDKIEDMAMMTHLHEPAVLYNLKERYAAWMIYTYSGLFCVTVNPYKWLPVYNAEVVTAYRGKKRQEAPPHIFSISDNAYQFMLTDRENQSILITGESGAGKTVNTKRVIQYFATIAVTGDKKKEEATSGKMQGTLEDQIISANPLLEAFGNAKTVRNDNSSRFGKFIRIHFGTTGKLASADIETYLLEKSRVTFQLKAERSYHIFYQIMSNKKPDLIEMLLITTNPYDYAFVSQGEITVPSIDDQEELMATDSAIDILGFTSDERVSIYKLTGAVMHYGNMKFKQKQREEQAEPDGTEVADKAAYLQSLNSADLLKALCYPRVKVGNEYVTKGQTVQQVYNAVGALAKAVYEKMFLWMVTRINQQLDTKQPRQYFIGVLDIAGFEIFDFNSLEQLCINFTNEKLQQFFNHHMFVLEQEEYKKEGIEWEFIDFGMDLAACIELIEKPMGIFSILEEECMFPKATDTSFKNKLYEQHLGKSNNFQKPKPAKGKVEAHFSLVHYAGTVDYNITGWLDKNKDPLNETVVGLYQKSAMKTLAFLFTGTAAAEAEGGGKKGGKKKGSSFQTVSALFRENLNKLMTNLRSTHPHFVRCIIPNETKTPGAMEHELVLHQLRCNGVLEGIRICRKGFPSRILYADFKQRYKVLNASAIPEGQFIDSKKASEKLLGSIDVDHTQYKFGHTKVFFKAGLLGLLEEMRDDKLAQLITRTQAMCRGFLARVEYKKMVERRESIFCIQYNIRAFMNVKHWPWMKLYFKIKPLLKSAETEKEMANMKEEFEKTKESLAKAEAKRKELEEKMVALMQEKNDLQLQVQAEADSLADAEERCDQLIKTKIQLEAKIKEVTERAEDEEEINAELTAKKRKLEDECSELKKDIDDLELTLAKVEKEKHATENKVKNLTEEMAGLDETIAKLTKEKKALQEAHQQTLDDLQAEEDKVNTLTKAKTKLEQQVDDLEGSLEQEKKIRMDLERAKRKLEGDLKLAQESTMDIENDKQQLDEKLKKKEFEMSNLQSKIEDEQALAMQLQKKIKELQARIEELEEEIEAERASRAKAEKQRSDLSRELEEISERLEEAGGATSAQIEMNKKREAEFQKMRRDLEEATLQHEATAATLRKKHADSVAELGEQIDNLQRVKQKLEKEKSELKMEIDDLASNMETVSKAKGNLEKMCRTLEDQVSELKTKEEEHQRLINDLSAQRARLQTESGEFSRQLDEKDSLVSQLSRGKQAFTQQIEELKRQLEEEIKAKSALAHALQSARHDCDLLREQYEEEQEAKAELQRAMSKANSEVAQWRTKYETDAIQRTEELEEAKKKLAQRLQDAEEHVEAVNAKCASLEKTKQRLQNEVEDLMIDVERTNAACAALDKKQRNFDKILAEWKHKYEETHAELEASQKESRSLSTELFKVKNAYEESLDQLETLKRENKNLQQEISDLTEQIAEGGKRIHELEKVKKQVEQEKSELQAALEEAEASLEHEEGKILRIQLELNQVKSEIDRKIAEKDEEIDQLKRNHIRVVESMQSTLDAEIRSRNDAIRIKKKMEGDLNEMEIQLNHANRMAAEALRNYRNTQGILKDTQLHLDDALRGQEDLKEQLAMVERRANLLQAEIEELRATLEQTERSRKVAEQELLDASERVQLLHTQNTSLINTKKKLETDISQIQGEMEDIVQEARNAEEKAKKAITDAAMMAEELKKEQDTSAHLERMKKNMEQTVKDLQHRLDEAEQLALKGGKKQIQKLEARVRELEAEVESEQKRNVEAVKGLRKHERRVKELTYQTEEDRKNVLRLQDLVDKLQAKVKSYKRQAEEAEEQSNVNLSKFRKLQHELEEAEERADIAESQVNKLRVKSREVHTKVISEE
Chain of rabbit skeletal muscle myosin II (P02602 2-192, chain 2 of 3): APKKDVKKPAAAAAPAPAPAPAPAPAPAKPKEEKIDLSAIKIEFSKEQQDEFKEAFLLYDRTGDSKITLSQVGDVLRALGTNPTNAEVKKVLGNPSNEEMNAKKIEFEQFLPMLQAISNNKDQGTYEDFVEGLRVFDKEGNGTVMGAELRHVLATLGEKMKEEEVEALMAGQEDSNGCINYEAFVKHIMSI
Chain of rabbit skeletal muscle myosin II (P02608 2-170, chain 3 of 3): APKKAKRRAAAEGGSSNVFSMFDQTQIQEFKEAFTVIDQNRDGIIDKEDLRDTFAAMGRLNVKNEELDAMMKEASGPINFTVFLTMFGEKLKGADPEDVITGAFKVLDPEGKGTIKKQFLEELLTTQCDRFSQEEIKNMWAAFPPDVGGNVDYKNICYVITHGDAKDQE

Consider “recombinant HGAL protein (Trx-HGAL fusion protein) (from UniProt Q8N6F7 1-178) (natural protein)”, for which, in assay [1], the stoichiometry N (molar ratio (to 1)) was 5.

B1: recombinant HGAL protein (Trx-HGAL fusion protein) (natural protein, human, UniProt Q8N6F7 1-178, looked up)
chain: MGNSLLRENRRQQNTQEMPWNVRMQSPKQRTSRCWDHHIAEGCFCLPWKKILIFEKRQDSQNENERMSSTPIQDNVDQTYSEELCYTLINHRVLCTRPSGNSAEEYYENVPCKAERPRESLGGTETEYSLLHMPSTDPRHARSPEDEYELLMPHRISSHFLQQPRPLMAPSETQFSHL
For the molecule B1, the “stoichiometry N” value in assay [2] was 2.5 molar ratio (to 1).

(Values after publication PMC3097272 (The FEBS journal, 2011).)
